Assay: label from the status in PepcDB records
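Further: failed if final PepcDB status was selected cloned or expressed and not failed if soluble or beyond.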

MHPKTQQILEVFEEINKIPRRSKHEEQISTWLQEWGRSRGFEVKADSLNNVLIKVPATTGYEDSPTLILQGHMDMVCEKCKDSIHDFSRDPIRCICDGDWMRGDGTSIGADDGIALALGLVMAEAGKKGEIGHPPLELLFTVDEETGLTGARGLETGFFEGKILLNLDSEDEGIFVIGCAGGQNSQITLPVEWELLDFKEENLFRFFRLSVEGLEGGHSGTEINKQRANGIQLLSLALVKLRGKLGIENVRLVLLNGGTVHNAIPSTAEAFIALHGEKLEKAAETMSDIRHAFKAEYAKTDPGLILNFEEISREIIFEVAEDKIPREEVSHVRVFSLETEEKLLELILGLPHGVYRMSETIHGLVETSNNLATVRTAGNEVIIVSSQRSSNNLRLAEISGKVEAISKLAGAWVEHEPGYPAWEPNLKSELILKCKQVYTETFGKEPEIEVIHAGLECGIIGSAHEGMEMISFGPTIKDAHSPAEKIFVPSIEKVWIFLENLFKTYC
protein production: failed

MHPVLIFLFALIAILLFTAKFRLHPFLSLVLVSLLTGILAGEPIRTIEAVTEGLGSVFSRFAIIITSGSIIGLLLQKTGGMSLIASDITRFFKNPLLALSFLGFLFSVPTMCYILAYVIFIPIAKELSSRFNYPPISTATALALGAVASFNLVYPSPVIISAAEELSANRDMLILLGFLTAVPTSFSGYLYARSLGKAEVSGMNEGGVIREKTIVKEKKDLSQENGALQRTENRKPGRFEAYAPIFIPLFLILFEAVLNNPNTLFTFLGNPNVALLIGVLLSIFSGRVLGLPMIRVQVEKAIKRSGVVLLDLCGGGALGATLAMTGAGEALGKFFLQFNLPHILVPFLVAAALQTVQGSRVVTMLVAPSLLLPLVPELGLPPEILILSMASGTFMISHVNDPFFWIFGELAELTPSEVFRSNTLGNALMGVVSFLIVSGIYFFFY
protein production: failed

MHRLRAAETGDIEAMTDLLLRHGPNPWNHLPEEGVRAHLRAIADGEVRAVLAERDDRLLGFASFRRTEDFAHYQPQRADAPRAYICEAVVHPAAAGQGLGSALLEAVLAQLADEGIEDVYIDRHEENLASAGMMRKAGFVELETYADPARRPNGSGRSTVCHRNLSLQRRAVR
protein production: failed

MHRSIRFTFDDRVPRYWHAGRAHTTRFFDCLSFMFPQGEKIFIESVVHFRHKLDKDSALDKAVDDFIYQEASHMREHRAYNQRLCAQGAPVETLERMLLRRRKESARLPASFRLALTASLEHITAILSDQLLRNPAYLKNADPTMAGLWRWHALEEIEHKAVAYDVLCTVERNPLWRYLLRCVAMLSLSVYFTFDLGYFTYHLVRGDKQHRNWREWLRLQWWLFVNPGLLSRIVPAGLFWFVPGFHPNRIDTRALLDTARQALDEQR
protein production: failed

MHSLYLGVVKVMAKIILVYANCVNSTAKGDFALAGQIAKDLVREKTSDDIDVVLTSTLDGIARFESLYGKAVDGRVIIEGTSVGLCALELFESVDNEVVAFIEANRCKYAPSDILKRVLSPDSKFLFIGAANQKAIATGDKFTKSWLYISHKGDQPNVYEHFDEDDSLIQSVGLGDDRLGLPSLPKVDELPEMNSTQSQKIPSGEYGFMYLAAVHGIDDVYLMNQYMSLTEMGQYVLVGEYAKQSKEVQMVLHSLQYKGSSVSLTMPQIFFHDSVDNCLMRNMVSKSSGPLVVSTGVMSSIEAMQDGKLTYYQTMSNNTQFVASYLIAVKSICSSDTTLFGSMPKLIIDLSNLLFAEKPLKESQMKEIKSLLGMSSVTSRLGEMNKRIIAKANGTVAGELLSFIGKPKTTQSHKQCISVCMSLRKSGETTSPIFDQALRRAAAWGRLFELKVLIASMSTSDLNKKDKTGNQYTALHWAVMQGHLDCARLLVKSGASVDIQDKSGKSPLHYAIKRGDKETIKLLVQAGASLEIMDDSGAKPCDGSESWVPEYIKSCYEKSGHKSSSLF
protein production: failed

MHSTPKRVLLAGATGLTGEHLLDRILSEPTLAKVIAPARKALAEHPRLDNPVGPLAELLPQLDGSIDTAFCCLGTTIKEAGSEEAFRAVDFDLPLAVGKRALEMGARHYLVVSALGADAKSSIFYNRVKGELEQALQEQGWPQLTIARPSLLFGPREEFRLAEILAAPIARILPGKYHGIEACDLARALWRLALEEGKGVRFVESDELRKLGK
protein production: not failed

MHSVHPTPKFSIITVTYNAEKVLEDTIQSVISQTYHHVEYIIVDGASKDGTLSIIDRYRPRITTVVSEPDKGLYDAMNKAISLASGDYLCFLNAGDCFHEDDTLQQMVHSIHGSVLPDVIYGETAIVDKDRHFLHMRRLSAPEKLDWKSFKQGMLVCHQAFFARHTLVEPYDLSYRYSADFDWCIRIMKKAYTLHNTHLTIIDYLDEGMTTQNRKASLKERFRIMAKHYGWISTAAHHAWFVLRLIIKPGQLEHHHHHH
protein production: not failed

MHTEQALHTRIADIVESIILKKVTPDTALISSGLVDSLAAVDITLAVESEYGCSIPAPEIAEHLQSVRTLAGYVAANSQ
protein production: failed

MHTTSGRWGYGLFLALLTALLWGILPIKLKQVLQVVDPITVTWYRLLVSGGLLFAWLAAQRRLPSMRKLAPRGKGLVLVAVLGLMGNYVLYLIGLKLLSPGTAQLVVQIGPVLLLVASVFVFRERFSVGQGMGLLVLLAGFGLFFNQRLEELLTSLGTYTTGVLTILLATSIWVFYALSQKQLLTVWHSQQVMMVIYLSCAALLTPWVHPLEALQLTPVQGWLLLACCLNTLVAYGAFAEALAHWEASRVSATLALTPLVTFVAVALAAWVWPEYVHAEDINALGYVGAVTVVFGSALVALGPSLVTSWRARRERGQRAYSSEG
protein production: failed

MHVQEWLETVPAVSIYALVGLVIGLESLGIPLPGEIVLISAALLSSQHGGINPVILGICATVGAVVGDSIGYAIGRKGGRPLLAWLGNKFPRHFGEGHIATAERSFEKWGMWAVFFGRFVALLRIFAGPLAGVLRMPYWKFLIANVLGGIIWAGGTTAVIYYVGVVAESWLKRFSYLGLVAAVLIGLASMLVIKRKAKKAAAEREAAEPETVPAAD
protein production: failed

MHYRWTLLTLAASLLCVPSASGLAEFGIEGMGVVSTPANEARATLSPDGQRIVWASDRTGGTGGWDLWQAQLRGGRWQDAQPLPINTAQDETTPLFSADGRWLLFASTRPGGAGGSDLYRAPVDAQGAVGPVQSLGAAIDSAGNERAPTLSLDGTRLLFASDGHGGAGGMDLFVAHWDGQAFTAPVALVDINSAADELDAAWLGDGRALVWARGKTDDPSQLLLAICKDGHFVQGSPLPLSFNGPQERTFGAVVDTAKPGELLVTGSARAPRAGQLDIYRMKAPAADGDASCR
protein production: failed

MHYSYLEPGLHAELAAITPDEAVAHLRNHLGNLLLDPAVTAAYINRLGVLTPEETTPSTRAWLTYLLVRYCDLLPLDLAAQRILAQVTGNAAPHLRDLERCAIPDPIERKLERLGAGEDSERNRAMLLALLHEYPYSPAIMERLMTVELALDIPVGGEWLPSVRPPAGLLRPLHERLFIHAMMQGDTERALQHAAACVPDNPSPHLLNHLAELHARLGDTQQALNLYGASLEADPLQHPVRLRMEALAKPPRAHADALHHRIAICLYSFNKAELLERTLSSLAASQTGEAHILVLLNGCTDDSATRVAAVNERLFNGRLEVIDMPINIGAPAARNWLLAKQTVREADFVAFLDDDVDVPAAWLPRLVGNLEEHPGAGVAGTRVRNPGDVPRLQYLYRNISVARPGLIRLSLDTPTLHHDTGFYDFTRSTTSVMGCCHVFTRRALDEVPAFDLRFSPSQMDDIAHDIDLALAGFDVLYTGDVVCVHHQMSGLGRANATDWKRFGNVAGNDVKFYYRFADRLDALGRLNNLGFMPDMPPALEHHHHHH
protein production: not failed

MIAAPFLGLLLGLAALLLLASPWPFLAPLVVVGLFGLALLYRRPGWGLLGICALVPFEGLFKDSAFSGAKLLGASLILIMLFKLLLRQIPDSRLRSNLWRALGPFLLCLLLSMLYSENLLVSLDSLRELAVGLVLFFVTLLIAREVNLLMLCRLLAVSVAITCVIALVSAKYQVGGRAIGLLQDANYFALLIAMAVPPAIFLALRSPHWPVRLFWVGISLTLMAGMTKTDSRSGLLVVLFTIAIGVWHYRDRLKGLRPKHLGFAMFAVAIVIPLGIAVLPAEYVARIQSLSMLKSGAHSADTSLGRRTSYLVVGGQMIRQNPLLGSGLGTFPIHYAQTGFASSFSENMNEPDLFRRAHNTYLELFSELGIPGGLSFVALMLMGLRNFERARQGFLARGQREQADIATHLGLSLLAMAVFLLFLSAPNHKYLWIFLALSSVLRLQAEDAPVPRPAPA
protein production: failed

— a protein production outcome set (Wang et al. 2014)
